According to publication PMC7948952, “Structural basis for multifunctional roles of human Ints3 C-terminal domain” (The Journal of Biological Chemistry, 2020):
Values belong to the binder of their own block, whether it stands above or below them.

How the values were obtained:
[1] = target: the molecule itself; test: cross-linking; glutaraldehyde, final concentration 0.075%, SDS-PAGE; negative control with 1% SDS and 20 mM DTT added before the reaction
[2] = target: the molecule itself; test: SEC; Superdex 200 Increase 10/300 Gl, 100 μl of approximately 2 mg/ml, 0.5 ml/min; wild-type and mutant Ints3-555-976
[3] = target: Ints3 C-terminal domain (Ints3-555-976) WT (human, UniProt Q68E01-2 555-976); test: EMSA; roughly 100% bound at 25 uM protein; 20 mM Hepes pH 7.4, 100 mM NaCl, 1 mM MgCl2, 1 mg/ml BSA, 2 mM DTT, 5% glycerol; on ice 30 min; 7.5 nM probe; native 5% PAGE in 1X TBE; conditions: protein: recombinant; tags: His or GST (GST cleaved); chain copies: 2; label: 5' 32P; single strand
[4] = target: T1, GST-tagged Ints3-555-976, wild type (human, UniProt Q68E01-2 555-976); test: pull-down; in vitro GST pull-down: GST-Ints3 captured on glutathione Sepharose 4B from BL21 lysates, incubated with about 15 μg purified MBP-Ints6-807-887; 20 mM Tris-HCl pH 8.0, 300 mM NaCl, 0.1% Nonidet P-40, 5% glycerol, 2 mM DTT, 2 h at 4 °C; anti-MBP blot; conditions: both partners purified
T1 construct: numbers count on: UniProtKB Q68E01-2, 1042 amino acids; also called GST-Ints3; GST-tagged Ints3 C-terminal domain; source: E. coli BL21, captured on glutathione Sepharose from lysate; also coexpressed with MBP-Ints6-807-887; not shown: GST, N-terminal, kept

GST-tagged Ints3-555-899 = target: T2, GST-tagged Ints3-555-899 (human, UniProt Q68E01-2 555-899); test: as above; conditions: both partners purified
T2 construct: numbers count on: UniProtKB Q68E01-2, 1042 amino acids; source: E. coli BL21, captured on glutathione Sepharose from lysate

[5] = target: T3, GST-tagged Ints3-555-976 R863A/D869A (human, UniProt Q68E01-2 555-976, R863A | D869A); test: pull-down; coexpression in E. coli of GST-tagged Ints3 constructs (pGEX-6p-1) and MBP-Ints6-807-887 (pRSFDuet-1), GST or MBP pull-down ('coexpression and reverse pull-down'); conditions: partners not purified
T3 construct: numbers count on: UniProtKB Q68E01-2, 1042 amino acids; source: E. coli BL21, coexpressed with MBP-Ints6-807-887; also captured on glutathione Sepharose from lysate; not shown: GST, N-terminal, kept

B1: Ints3-555-976 (human Ints3 C-terminal domain), wild type (domain or fragment, UniProt Q68E01-2 555-976, looked up)
chain: PIKETVVEEPVDITPYLDQLDESLRDKVLQLQKGSDTEAQCEVMQEIVDQVLEEDFDSEQLSVLASCLQELFKAHFRGEVLPEEITEESLEESVGKPLYLIFRNLCQMQEDNSSFSLLLDLLSELYQKQPKIGYHLLYYLRASKAAAGKMNLYESFAQATQLGDLHTCLMMDMKACQEDDVRLLCHLTPSIYTEFPDETLRSGELLNMIVAVIDSAQLQELVCHVMMGNLVMFRKDSVLNILIQSLDWETFEQYCAWQLFLAHNIPLETIIPILQHLKYKEHPEALSCLLLQLRREKPSEEMVKMVLSRPCHPDDQFTTSILRHWCMKHDELLAEHIKSLLIKNNSLPRKRQSLRSSSSKLAQLTLEQILEHLDNLRLNLTNTKQNFFSQTPILQALQHVQASCDEAHKMKFSDLFSLAEEY
notes: numbers count on: UniProtKB Q68E01-2, 1042 amino acids; For crystallisation a trace of trypsin (1:1000 w/w) was added; it cuts after K557 and after K914, and both fragments stay in the crystal; SeMet protein was used for phasing; also called HR1-11; Band I; not shown: GST, N-terminal, cleaved
stoichiometry N [1]: 2

B2: Ints3-555-976 R788E/K789E (domain or fragment, human, UniProt Q68E01-2 555-976, looked up)
chain: PIKETVVEEPVDITPYLDQLDESLRDKVLQLQKGSDTEAQCEVMQEIVDQVLEEDFDSEQLSVLASCLQELFKAHFRGEVLPEEITEESLEESVGKPLYLIFRNLCQMQEDNSSFSLLLDLLSELYQKQPKIGYHLLYYLRASKAAAGKMNLYESFAQATQLGDLHTCLMMDMKACQEDDVRLLCHLTPSIYTEFPDETLRSGELLNMIVAVIDSAQLQELVCHVMMGNLVMFEEDSVLNILIQSLDWETFEQYCAWQLFLAHNIPLETIIPILQHLKYKEHPEALSCLLLQLRREKPSEEMVKMVLSRPCHPDDQFTTSILRHWCMKHDELLAEHIKSLLIKNNSLPRKRQSLRSSSSKLAQLTLEQILEHLDNLRLNLTNTKQNFFSQTPILQALQHVQASCDEAHKMKFSDLFSLAEEY
notes: numbers count on: UniProtKB Q68E01-2, 1042 amino acids; source: purified to homogeneity (gel filtration)
stoichiometry N [2]: 2

B3: Ints3-555-976 K851E (domain or fragment, human, UniProt Q68E01-2 555-976, looked up)
chain: PIKETVVEEPVDITPYLDQLDESLRDKVLQLQKGSDTEAQCEVMQEIVDQVLEEDFDSEQLSVLASCLQELFKAHFRGEVLPEEITEESLEESVGKPLYLIFRNLCQMQEDNSSFSLLLDLLSELYQKQPKIGYHLLYYLRASKAAAGKMNLYESFAQATQLGDLHTCLMMDMKACQEDDVRLLCHLTPSIYTEFPDETLRSGELLNMIVAVIDSAQLQELVCHVMMGNLVMFRKDSVLNILIQSLDWETFEQYCAWQLFLAHNIPLETIIPILQHLKYKEHPEALSCLLLQLRREEPSEEMVKMVLSRPCHPDDQFTTSILRHWCMKHDELLAEHIKSLLIKNNSLPRKRQSLRSSSSKLAQLTLEQILEHLDNLRLNLTNTKQNFFSQTPILQALQHVQASCDEAHKMKFSDLFSLAEEY
notes: numbers count on: UniProtKB Q68E01-2, 1042 amino acids; also called K851 E charge mutant; source: purified to homogeneity (gel filtration)
stoichiometry N [2]: 2

Binder: UUUUUUUUUUUUUUUUUUUUUUUUUUUUUU (ssRNA) [rU30]
binding result [3]: binds

binding result [4]: binds
binding result (GST-tagged Ints3-555-899): binds
binding result [5]: binds
B4: MBP-Ints6-807-887 (domain or fragment, UniProt Q9UL03 807-887, looked up)
chain: EVNTELKAQIMKEIRKPGRKYERIFTLLKHVQGSLQTRLIFLQNVIKEASRFKKRMLIEQLENFLDEIHRRANQINHINSN
notes: Integrator complex subunit 6 (Ints6, DDX26a), residues 807-887; cDNA from DNAsu; Made in a modified pMal-c2X vector: an AAAEF linker and no protease site stand between MBP and Ints6-807-887; the MBP-Ints6-807-887 region was then cloned into pRSFDuet-1; also called MBP-tagged Ints6-807-887; source: E. coli BL21-CodonPlus (DE3)-RIPL, purified (amylose resin, HiTrap Q); also coexpressed with …
